Experimental data reported in patent US20040101905A1, “Product” (priority 2000, published 2004).

Assays:
[1] = molecular target: T1, SC (secretory component, extracellular portion of the poly Ig receptor) (Homo sapiens, UniProt P01833); assay: ELISA of phage binding to immobilised SC; conditions: for SC binding of single phage clones (ELISA): immobilised colostrum SC
T1 construct: “secretory component”—the extracellular portion of the poly Ig receptor; from tissue; host or cells: human colostrum
Procedure: Affinity selection: Free SC purified from human colostrum by Jackaline-Sepharose column (Pharmacia Biotech, Uppsala, Sweden) (Brandtzaeg P. Scand. J. Immunol. 1974, 3:579-88) was used. SC was immobilised in Nunc MaxiSorp (Costar) tubes at approximately 30 μg/ml in a volume of 500 μl in each tube at 4° C. ON. The tubes were blocked with 1% BSA or 1% milk powder in PBS for 1 h at RT. Approximately 10^10 TU from each library were pre incubated with PBS and 1% BSA or 1% milk powder (1:1) for 1 h at 4° C. before they were added to the tubes and incubated at RT for 1.5 h. The tubes were washed 6 times with PBS/0.05% Tween 20. Bound phage were eluted by incubation with 500 μl 0.1M HCl-glycine pH 2.2 for 10 min and neutralised with 75 μl 0.1M Tris pH 9.1. Phage were amplified essentially as described by Smith and Scott (Methods Enzymol., 1993, 217:228-257) and two additional rounds of affinity selection were performed.
ELISA assay. The purified colostrum SC was coated at 30 μg/ml in Nunc MaxiSorb wells in PBS at 4° C. ON. The wells were blocked with 200 μl PBS with 1% BSA or 1% milk powder for 1 h at RT. Phage supernatants from amplified eluates or single colonies were diluted 1:1 in blocking buffer, added to the wells and allowed to react with immobilsed SC for 1.5 h at RT. The wells were washed 6 times with PBS/0.05% Tween and bound phage were detected by adding a horse radish peroxidase (HRP)/Anti-M13 IgG conjugate (Pharmacia) 1:4000 in PBS with 1% BSA or 1% milk powder. After incubation for 1 h at RT, washing with PBS/[…] and addition of ABTS substrate solution (ABTS tablets from Boehringer Mannheim in citrate buffer, pH 4.0) the ABTS-HRP reactions were read in a microtiter plate reader set at […] (Dynatech MR 700).

FcγRI receptor = molecular target: T2, FcγRI receptor (Homo sapiens, UniProt P12314); assay: Affinity selection of phage displayed peptides on IFN-γ stimulated U937 cells (FcγRI binding)
T2 construct: To increase FcγRI expression the U937-cells were treated with 100 U/ml IFN-γ for 40 hours; endogenous in cells; host or cells: U937 cells stimulated with IFN-γ
Procedure: (§1) Affinity selection: For affinity selection, […] stimulated U937cells were washed in 20 ml pan-wash buffer (PBS pH7.4, 1% BSA, 1 mMCaCl2, 10 mMMgCl2) and then resuspended in 1 ml pan-wash buffer. Portions (1×10^10 E. coli K91K transducing units (TU)) of each library were added to the cells. Cells and phages were incubated with agitation for 1.5 hours at 4° C. Unbound phages were removed by washing the cells 6 times with 2 ml pan-wash buffer. Bound phages were eluted in 200 μl 0.1M HCl-glycine pH 2.2 for 10 minutes on ice. The eluates were neutralised with 17 μl 1.5M Tris pH 8.8. Phages were amplified (essentially as described in Smith and Scott Methods Enzymol. 1993;217:228-57). A second round of affinity selection was performed using an input of 10^9 phages.
Peptide sequences of affinity selected phage clones: PCR products covering the peptide coding insert were created using the primers fUSE5 for (5′ […] 3′) and fUSE5 (5′[…] 3′). The PCR products were sequenced (GATC/GmBh Germany) using the primer (5′[…] 3′) and the results shown in Table 1.

K562 cells = assay: Phage binding to K562 cells; type: cell-based, human; conditions: input 5 × 10^7 TU; for Output (number of bound phages): 3×10^6 cells
Procedure: (§2) Cells: U937 cells (ATCC CRL-1593) and K562 cells (ATCC CCL-243) were maintained in RPMI 1640 medium (Gibco laboratories) supplemented with 10% heat-inactivated FCS (Biological Industries, Beth Haemark), 2 mM L-glutamine, 100 U/ml penicillin (Gibco). Cells-were incubated at 5% CO2 and 37° C. at density ranging from 10^5 to 10^6 cells/ml.
as §1
(§3) Cell binding of individual phages: Phage expressing the peptide CLRSGLGC were analysed for binding unstimulated U937 cells, IFN-γ stimulated U937 cells, as well as K562 cells. Both U937 and […]. Whereas INF-γ stimulated U937 cells express an increased number of FcγRI, K562-cells preferentially express FcγRII. 5×10^7 TU of individual phage clones were added to 3×10^6 cells in pan-wash buffer, incubated and eluted as described above.

[2] = tested on: IFN-γ stimulated U937 cells; assay: Phage binding to IFN-γ stimulated U937 cells; type: cell-based, human; conditions: for % output / Output (number of bound phages): U937-INF-γ, input 5 × 10^7 TU; for Output (number of bound phages): 3×10^6 cells, acid eluate
Procedure: as §2
To increase FcγRI expression the U937-cells were treated with 100 U/ml IFN-γ for 40 hours.
as §1, §3

unstimulated U937 cells = assay: Phage binding to unstimulated U937 cells; type: cell-based, human; conditions: input 5 × 10^7 TU; for Output (number of bound phages): 3×10^6 cells
Procedure: as §2, §1, §3

[3] = Phage binding to control wells (protein A with lysate from untransfected NSO cells; protein A blocked with BSA)
Procedure: (§4) Protein A was immobilised in wells at 10 μg/ml in a volume of 200 μl at 4° C. overnight (ON). The wells were blocked with 1% BSA in PBS for 1 h at room temperature (RT). Lysate from FcFcR-transfected and untransfected cells were added to the wells and incubated at RT for 2 h. The wells were washed and new lysate was added zero, one or two times following 2 h incubation at RT. The wells were washed 7 times with PBS/0.5% Tween 20. 200 μl biotinylated human IgG3 in PBS (1 μg/ml) was added to the wells. The wells were washed as above and binding of biotinylated IgG3 was detected with streptavidin and […] (FIG. 2).
(§5) Wells were coated as described above with lysate from FcFcR transfected NSO cells added three times. Phages displaying the peptide CLRSGLGC were added to the wells and incubated at RT for 1.5 h. The wells were washed 8 times with PBS/0.5% Tween 20. Bound phages were eluted by incubation with 200 μl 0.1M HCl-glycine pH 2.2 for 10 min. and neutralised with 17 μl 0.1M Tris pH 8.8. The number of bound phages were determined as E. coli K91K TU's (Table 4).

[4] = molecular target: T3, FcFcR (recombinant dimeric soluble human FcγRI) (Homo sapiens, UniProt P12314); assay: Binding of phage displayed peptides to recombinant dimeric FcγRI (FcFcR) immobilised via protein A
T3 construct: the extracelluar part of the human FcγRI genetically fused to human IgG4; made in house; host or cells: mouse myeloma cell line NSO (lysate of transfected cells, not purified)
Procedure: as §4, §5

SC = molecular target: T4, SC (Homo sapiens, UniProt P01833); assay: Inhibition assay of SC binding phages; conditions: phages CWTSGARWRLC and CVVWMGFQQVC pre incubated with competitor
T4 construct: “secretory component”—the extracellular portion of the poly Ig receptor; from tissue; host or cells: human colostrum
Procedure: Inhibition assay of SC binding phages: Nunc MaxiSorb 96 wells plates were coated with 30 μg/ml of purified colostrum SC at 4° C. ON. The plates were blocked in 1% milk powder for 1 h at RT before adding phage. Phage were pre incubated with […] polymeric IgA (pIgA), pIgM or Streptococcus pneumoniae secretory IgA binding protein (SpsA) in PBS/1% milk powder. SpsA is an streptococcal produced SC binding protein (Hammerschmidt et al. Mol Microbiol 1997 sep 25 (6): 1113-24). After incubation for 1.5 h at RT the plates were washed 6 times before HRP/Anti-M13 conjugate (Pharmacia) 1:4000 in PBS with 1% milk powder was added. 6 times of washing with PBS/0.05% Tween were followed by the ABTS substrate solution. The ABTS-HRP reaction was read in a microtiter plate reader set at 405 nm. All samples were run in duplicates.

T2 sequence (P12314 16-374): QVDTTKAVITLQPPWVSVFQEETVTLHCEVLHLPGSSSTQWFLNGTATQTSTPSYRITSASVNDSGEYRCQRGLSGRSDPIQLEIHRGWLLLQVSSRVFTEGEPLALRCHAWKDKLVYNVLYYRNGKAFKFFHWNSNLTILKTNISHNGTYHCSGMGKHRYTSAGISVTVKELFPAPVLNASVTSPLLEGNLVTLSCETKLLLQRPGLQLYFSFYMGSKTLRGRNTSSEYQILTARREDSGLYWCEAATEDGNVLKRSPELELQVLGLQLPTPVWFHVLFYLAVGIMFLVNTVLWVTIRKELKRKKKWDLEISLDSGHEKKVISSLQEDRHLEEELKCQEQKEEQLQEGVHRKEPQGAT
T3 sequence (P12314 16-292 limits assumed): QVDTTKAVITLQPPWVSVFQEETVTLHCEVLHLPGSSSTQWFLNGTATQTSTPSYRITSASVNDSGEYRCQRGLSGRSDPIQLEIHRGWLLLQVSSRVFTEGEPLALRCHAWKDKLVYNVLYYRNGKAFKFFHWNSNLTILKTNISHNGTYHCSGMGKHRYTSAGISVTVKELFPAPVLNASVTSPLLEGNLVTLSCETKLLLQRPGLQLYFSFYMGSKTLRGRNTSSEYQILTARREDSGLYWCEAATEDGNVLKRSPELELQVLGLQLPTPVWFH
T1 sequence (P01833 19-603 limits assumed): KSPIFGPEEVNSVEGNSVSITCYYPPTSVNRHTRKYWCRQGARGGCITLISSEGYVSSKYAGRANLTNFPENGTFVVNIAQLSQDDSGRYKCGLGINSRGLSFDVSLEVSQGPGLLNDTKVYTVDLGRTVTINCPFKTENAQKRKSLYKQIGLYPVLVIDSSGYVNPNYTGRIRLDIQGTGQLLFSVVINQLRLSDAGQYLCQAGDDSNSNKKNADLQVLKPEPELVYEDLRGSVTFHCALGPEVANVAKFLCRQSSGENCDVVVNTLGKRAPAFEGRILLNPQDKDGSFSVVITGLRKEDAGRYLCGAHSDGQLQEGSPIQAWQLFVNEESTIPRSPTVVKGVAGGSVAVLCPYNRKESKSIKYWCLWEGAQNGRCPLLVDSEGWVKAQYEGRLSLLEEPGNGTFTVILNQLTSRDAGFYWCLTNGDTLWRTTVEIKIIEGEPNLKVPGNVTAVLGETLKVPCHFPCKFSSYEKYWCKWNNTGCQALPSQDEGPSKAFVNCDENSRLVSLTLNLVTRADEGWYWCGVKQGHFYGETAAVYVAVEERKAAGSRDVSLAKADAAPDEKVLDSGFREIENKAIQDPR
T4 sequence (P01833 19-603 limits assumed): as above

In the case of CAWHYRFCGAAHSADGACREVFLVC, the “binding to the poly Ig receptor” value [1] is reported as “shown to bind the poly Ig receptor” and the “SC binding of single phage clones (ELISA)” value (from here on “SC binding … (ELISA)”) [1] is reported as “positive”.
For CFPVGRATC, the “binding to the FcγRI receptor” value (FcγRI receptor) was “shown to bind the FcγRI receptor”.
In the case of “CGPGGTVGYTC [CONTROL, control phage displaying an irrelevant insert (…), reference compound]”, the “% output” value (K562 cells) is reported as less than 0.0004%, the “Output (number of bound phages)” value (K562 cells) is reported as <2 × 10^2 TU and the “% output” value [2] is reported as less than 0.0004%. For the same substance, the “Output (number of bound phages)” value [2] was <2 × 10^2 TU, the “% output” value (unstimulated U937 cells) was less than 0.0004% and the “Output (number of bound phages)” value (unstimulated U937 cells) was <2 × 10^2 TU.
For CGRVNTWLPQC, the “binding to the FcγRI receptor” value (FcγRI receptor) was “shown to bind the FcγRI receptor”.
With CLRSGAGC the “binding to the FcγRI receptor” value (FcγRI receptor) was “shown to bind the FcγRI receptor”.
For CLRSGANC, the “binding to the FcγRI receptor” value (FcγRI receptor) was “shown to bind the FcγRI receptor”.
In the case of CLRSGLGC, the “% output” value (K562 cells) is reported as 0.02%, the “Output (number of bound phages)” value (K562 cells) is reported as 1.4 × 10^4 TU and the “times more phages eluted compared to the irrelevant control phage” value ([2]; IFN-γ stimulated U937 cells) is reported as “More than 500 times”. For the same substance, the “% output” value [2] was 0.2%, the “Output (number of bound phages)” value [2] was 1 × 10^5 TU and the “binding to IFN-γ stimulated U937 cells compared to unstimulated U937 cells and K562 cells” value ([2]; same number of cells) was “bound significantly better to IFN-γ stimulated U937 cells”. The “% output” value [3] was 0.05%, the “Output (number of bound phages)” value ([3]; input 2.5 × 10^8) was 1.2 × 10^5 TU and the “binding to the FcγRI receptor” value (FcγRI receptor) was “shown to bind the FcγRI receptor”. The “% output” value (unstimulated U937 cells) was 0.028%, the “Output (number of bound phages)” value (unstimulated U937 cells) was 1.4 × 10^4 TU and the “binding to wells with immobilised FcFcR compared to wells with no FcR activity” value [4] was “significant better binding”. For the same substance, the “% output” value ([4]; lysate from FcFcR transfected cells) was 0.3% and the “Output (number of bound phages)” value ([4]; lysate from FcFcR transfected cells, input 2.5 × 10^8) was 6.8 × 10^5 TU.
In the case of CLRSGLHC, the “binding to the FcγRI receptor” value (FcγRI receptor) is reported as “shown to bind the FcγRI receptor”.
In the case of CLRSGRAC, the “binding to the FcγRI receptor” value (FcγRI receptor) is reported as “shown to bind the FcγRI receptor”.
With CLRSGRGC the “binding to the FcγRI receptor” value (FcγRI receptor) was “shown to bind the FcγRI receptor”.
In the case of CLRSGSGC, the “binding to the FcγRI receptor” value (FcγRI receptor) is reported as “shown to bind the FcγRI receptor”.
For CLYGDELC, the “binding to the FcγRI receptor” value (FcγRI receptor) was “shown to bind the FcγRI receptor”.
In the case of CQDPICFCGADGACYCTSRNC, the “binding to the poly Ig receptor” value [1] is reported as “shown to bind the poly Ig receptor” and the “SC binding … (ELISA)” value [1] is reported as “positive”.
In the case of CRRATAGCAGC, the “binding to the FcγRI receptor” value (FcγRI receptor) is reported as “shown to bind the FcγRI receptor”.
For CRRSGQGC, the “binding to the FcγRI receptor” value (FcγRI receptor) was “shown to bind the FcγRI receptor”.
With CRSMVMLRVRC the “binding to the FcγRI receptor” value (FcγRI receptor) was “shown to bind the FcγRI receptor”.
For CSAGRACCRYC, the “binding to the FcγRI receptor” value (FcγRI receptor) was “shown to bind the FcγRI receptor”.
In the case of CSWIPGVGLVC, the “binding to the FcγRI receptor” value (FcγRI receptor) is reported as “shown to bind the FcγRI receptor”.
In the case of CVVWMGFQQVC, the “binding to the poly Ig receptor” value [1] is reported as “shown to bind the poly Ig receptor” and the “SC binding … (ELISA)” value [1] is reported as “SC binding”.
In the case of CWTSGARWRLC, the “binding to the poly Ig receptor” value [1] is reported as “shown to bind the poly Ig receptor” and the “SC binding … (ELISA)” value [1] is reported as “SC binding”.
With SpsA the “blocking of phage binding to SC” value (SC) was “blocked phage from binding to the receptor for both peptides”.
